Results on one substance are retold here after patent US20100190182A1, “DIAGNOSTIC COMPOSITION AND METHOD FOR THE DETECTION OF A TRICHINELLA INFECTION” (priority 2007, published 2010).

Test [1] addresses 5-CF-Trp(2)-Gly(9)-FLAG. The experiment in a line: fluorescence polarisation assay; tracer 8.1 nM, 10 molar equivalents of antibody.
For test [2], the target named is 5-CF-Pro-Gly(9)-FLAG. The test is described as above.
In test [3] the target is 5-CF-Trp-Gly(9)-FLAG. The test is described as above.
For test [4], the target named is 5-CF-Trp(2)-Gly(9)-FLAG. As to the kind of experiment: fluorescence polarisation assay; tracer 8.1 nM, 3 molar equivalents of antibody. For orientation: Polarisation of emitted light reports the rotation of a fluorescent probe.
Test [5] addresses 5-CF-Pro-Gly(9)-FLAG. Described as above.
Test [6] deals with 5-CF-Trp-Gly(9)-FLAG. Described as above.
Test [7] addresses 5-CF-Trp(2)-Gly(9)-FLAG. As to the kind of experiment: fluorescence polarisation assay; tracer 2.7 nM, 10 molar equivalents of antibody.
The target in test [8] is 5-CF-Pro-Gly(9)-FLAG. Described as above.
Test [9] addresses 5-CF-Trp-Gly(9)-FLAG. Described as above.
Test [10] has as its target 5-CF-Trp(2)-Gly(9)-FLAG. The experiment in a line: fluorescence polarisation assay; tracer 2.7 nM, 3 molar equivalents of antibody.
Test [11] addresses 5-CF-Pro-Gly(9)-FLAG. The description is as above.
In test [12] the target is 5-CF-Trp-Gly(9)-FLAG. Described as above.
For test [13], the target named is 5-CF-Trp(2)-Gly(9)-FLAG. As to the kind of experiment: fluorescence polarisation assay; tracer 2.7 nM, 1 molar equivalent of antibody.
For test [14], the target named is 5-CF-Pro-Gly(9)-FLAG. The description is as above.
The target of test [15] is 5-CF-Trp-Gly(9)-FLAG. Described as above.
Test [16] has as its target 5-CF-Trp(2)-Gly(9)-FLAG. As to the kind of experiment: fluorescence polarisation assay; tracer 8.1 nM, 1 molar equivalent of antibody.
The target of test [17] is 5-CF-Pro-Gly(9)-FLAG. The test is described as above.
In test [18] the target is 5-CF-Trp-Gly(9)-FLAG. The description is as above.

With “anti-FLAG M2 monoclonal antibody (Sigma, Switzerland)”, the ΔmP in test [1] stood at 124 mP; in test [2], 62 mP; in [3], 86 mP; in test [4], 78 mP; in [5], 33 mP; in [6], 50 mP. For the same substance, the ΔmP was 97 mP in [7]; 33 mP in [8]; 55 mP in test [9]; 35 mP in test [10]; 15 mP in test [11]; 27 mP in [12]. Moreover, the ΔmP in test [13] came out at 5 mP; in [14], 5 mP; in test [15], 9 mP; in test [16], 37 mP; in [17], 14 mP; in test [18], 19 mP.
